The source of these data is US20230406961A1 (published 2023).

One may read the Kd as the equilibrium constant for the complex coming apart. Higher therefore signals a looser complex.

Holding throughout (assay): SPR (Biacore)
(SPR reads the build-up and loss of mass on a sensor chip optically.)

The target of one experiment is Endoglin_10.
For another experiment, the target named is Endoglin_23.
The next experiment has as its target T1, endoglin (CD105) (UniProt P17813 26-586).
T1 chain: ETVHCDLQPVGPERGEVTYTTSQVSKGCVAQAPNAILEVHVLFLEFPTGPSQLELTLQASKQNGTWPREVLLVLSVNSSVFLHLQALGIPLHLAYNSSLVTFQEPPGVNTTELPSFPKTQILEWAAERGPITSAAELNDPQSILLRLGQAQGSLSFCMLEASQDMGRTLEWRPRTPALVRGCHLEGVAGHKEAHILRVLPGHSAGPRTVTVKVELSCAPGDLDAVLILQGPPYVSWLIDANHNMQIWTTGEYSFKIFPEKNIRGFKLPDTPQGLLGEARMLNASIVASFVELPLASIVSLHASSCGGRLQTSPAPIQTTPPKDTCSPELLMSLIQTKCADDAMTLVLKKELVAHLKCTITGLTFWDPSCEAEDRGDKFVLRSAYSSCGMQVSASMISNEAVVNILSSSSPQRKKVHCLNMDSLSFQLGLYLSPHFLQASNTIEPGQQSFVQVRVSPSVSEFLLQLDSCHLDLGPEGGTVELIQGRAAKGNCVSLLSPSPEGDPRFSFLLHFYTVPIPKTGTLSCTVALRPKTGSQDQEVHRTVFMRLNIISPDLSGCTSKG

B1: Endoglin (receptor)
chain: T1 chain
For the molecule B1, the Kd in the experiment with Endoglin_10 was determined as 23.5 nM; with Endoglin_23, 64 nM.

B2: endoglin antibody clone Kro22 (humanized AB clone Kro22.2 / Kro22.6) (antibody, V domains shown)
VH: QVQLVQSGAEVKKPGASVKVSCKASGYTFTSYWMHWVRQAPGQGLEWIGNIYPGSGSTFYDEKFKGRATLTVDTSISTAYMELSRLRSDDTAVYYCTRRNYVTGFDYWGQGTTVTVSS
VL: DIQLTQSPSFLSASVGDRVTITCKSSQSVLYSSNQKNYLAWYQQKPGKAPKLLIYWASTRESGVPSRFSGSGSGTEFTLTISSLQPEDFATYYCHQYLSSYTFGQGTKLEIK
In the experiment with endoglin (CD105), B2 showed a Kd of 2.44 nM.
